Reference: US20190224279A1, “PHARMACEUTICAL ASSOCIATION COMPRISING A GROWTH FACTOR RECEPTOR AGONIST CONJUGATED TO A BIOACTIVE CARRIER FOR CONVERTING A NEOPLASTIC CELL INTO A NON-NEOPLASTIC CELL AND USES THEREOF” (HISTIDE AG, priority 2015, published 2019)
No end group written: not given here.

Target: growth factor receptors
Assay: cell-based or functional assay

Row | Binder | p-Smad1/5/8 (%)
1 | VPQALSPINMLYFNEKNQIIYGKIPFLQHNK (not fully specified) [GFR-binding compound of SEQ ID NO: 75] | 54
2 | VPTEESNITTQIMRIKPHQGQHIGEMSFLQH (not fully specified) [GFR-binding compound of SEQ ID NO: 69] | 32
3 | ASASPSSVPQDLEPLTILYYVGRTPKVEQLSNMVEDH (not fully specified) [GFR-binding compound of SEQ ID NO: 80] | 34
4 | RNVQCRPTQLEPLPIVYYEIVRKKPEQLSNTLEDHLA (not fully specified) [GFR-binding compound of SEQ ID NO: 81] | 41
5 | RNVQCRPTQLEPLPIVYYEIVRKKPEQLSNTLEDHLA (not fully specified) [GFR-binding compound of SEQ ID NO: 66] | 38
6 | VPARLSPISILYIDAANNVVYKQYEDM (not fully specified) [GFR-binding compound of SEQ ID NO: 74] | 51
7 | APTQLSAISTLYLEIVRKKPLKNYQEMEDH (not fully specified) [GFR-binding compound of SEQ ID NO: 78] | 58
8 | TPTKMSPINMLYFNEKNNIIYGKIPGMVVD (not fully specified) [GFR-binding compound of SEQ ID NO: 76] | 55
9 | VPQALNAISTLYFDDSSNVILKKYRNMAVS (not fully specified) [GFR-binding compound of SEQ ID NO: 72] | 48
10 | APTQLSAISTLYLEIVRKKPLKNYQFLQHNK (not fully specified) [GFR-binding compound of SEQ ID NO: 77] | 52
11 | VPTKLSPISILYIDDMGVPTYKQYEEGMSVAE (not fully specified) [GFR-binding compound of SEQ ID NO: 67] | 40
12 | VPQALSPISILYIDDMGVPTYKQYEEGMSVAE (not fully specified) [GFR-binding compound of SEQ ID NO: 68] | 39
13 | ASASPSSVPQDLEPLTILYYVGRTPKVEQLSNMV (not fully specified) [GFR-binding compound of SEQ ID NO: 65] | 38
14 | VPTELSPISILFIRIKPHQGHLGEMSAAVVE (not fully specified) [GFR-binding compound of SEQ ID NO: 70] | 30
15 | TQVQLEPLTLLYYDENEKVIEQLSNDMVVE (not fully specified) [GFR-binding compound of SEQ ID NO: 71] | 47
16 | VPEKMSSLSILFFDENKNVVLKVYPNMAVS (not fully specified) [GFR-binding compound of SEQ ID NO: 73] | 44
17 | NDEGLECVPTEERPVQVRKIRIKPHQGQKKATVFLQHNK (not fully specified) [GFR-binding compound of SEQ ID NO: 64] | 36
18 | NDEGLECVPTEERPVQVRKIRIKPHQGQKKATVFLQHNK (not fully specified) [GFR-binding compound of SEQ ID NO: 79] | 27

Next, values leading:

Row | p-Smad1/5/8 (%) | Binder
19 | 34 | APTKLEPLPMVYYEERRNVIEQLSNNMVVR (not fully specified) [GFR-binding compound of SEQ ID NO: 86]
20 | 22 | VPTEESNITTQIMRIKPHQGQHIGEMSFLQH (not fully specified) [GFR-binding compound of SEQ ID NO: 84]
21 | 36 | VPTELSPISILFIVGGKPKVYKQYENMVVE (not fully specified) [GFR-binding compound of SEQ ID NO: 90]
22 | 32 | APTKLEPLTIVYYDDSSNVIEQLSNNMVVR (not fully specified) [GFR-binding compound of SEQ ID NO: 88]
23 | 38 | VPTKLSAISTLYLDLAREEPLKNYQEMVVE (not fully specified) [GFR-binding compound of SEQ ID NO: 87]
24 | 41 | TPTKMSPINMLYFNEKNNIIYGKIPGM (not fully specified) [GFR-binding compound of SEQ ID NO: 94]
25 | 46 | VPTHHSAISMLYLELGGDKPLENYQFLQ (not fully specified) [GFR-binding compound of SEQ ID NO: 97]
26 | 56 | SRVHHNAISTLYFDESSNVILKKYRGMSVVE (not fully specified) [GFR-binding compound of SEQ ID NO: 91]
27 | 39 | VSQDLSAISTLYLKIVRKEPLKNYQEMVEE (not fully specified) [GFR-binding compound of SEQ ID NO: 98]
28 | 26 | VPQALSPISILFIRLKPHQGHLGEMSNMVVR (not fully specified) [GFR-binding compound of SEQ ID NO: 85]
29 | 35 | VPTKLSPISILYIDKMGVPTYKQYEEGMSVAE (not fully specified) [GFR-binding compound of SEQ ID NO: 82]
30 | 33 | VPARLSPISILYIDEMGVPTYKQYEEGMSVAE (not fully specified) [GFR-binding compound of SEQ ID NO: 83]
31 | 29 | RNVQCRPTQLEPLPIVYYEIVRKKPEQLSNTLE (not fully specified) [GFR-binding compound of SEQ ID NO: 95]
32 | 52 | VPEKMSSLSILFFDENKNAALKVYPNMTVE (not fully specified) [GFR-binding compound of SEQ ID NO: 92]
33 | 41 | VPQALSPISILFIVGRKPKVYKQYEMIVERS (not fully specified) [GFR-binding compound of SEQ ID NO: 89]
34 | 47 | VPTHHSAISTLYLELAGEKPLKNYQFLQHNK (not fully specified) [GFR-binding compound of SEQ ID NO: 96]
35 | 44 | VPARLSPISILYIDAANNVVYKQYEDMVKS (not fully specified) [GFR-binding compound of SEQ ID NO: 93]
